assay: yeast display, Sf9 membrane polyspecificity reagent, FACS + sequencing; frameworks hold sequencing errors
How it was run: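 Using colony PCR, genes from sorted yeast display clones were amplified, then sequenced on MiSeq at 2 × 250 and filtered by CDR length. The clones had been stained with 10% biotinylated, detergent-solubilized Sf9 membrane reagent for 1 hour at 4 °C and sorted by FACS into low and high (top ~1%) gates on anti-HA and streptavidin fluorescence. Polyreactivity labels come from the gate of origin.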

| Sequence | polyreactivity (PSR sort gate) |
| --- | --- |
| QVQLVESGGGLVQAGGSLRLSCAASGSTFGQYAMGWYRQAPGKERELVAAISRNGGRTYYADSVKGRFTISRDNAKNTVYLLMNSLKPEDTAVYYCAAGGFLYVYYRGMYYWGQGTQVTVSS | high polyreactivity |
| QVQLVESGGGLVQAGGSLRLSCAASGSTFGRNAMGWYRQAPGKERELVAAINWSDGSTHYADSVKGRFTISRDNAKNTVYLQMNSLKPEDTAVYYCAADAWSWPVDYNYWGQGTQVTVSS | low polyreactivity |
| QVQLVESGGGLVQAGGSLRLSCAASGSTFGRNAMGWYRQAPGKERELVASISRRGGSTYYADSVKGRFTISRDNAKNTVYLQMNSLKPEDTAVYYCNARYYFSDYGYWGQGTQVTVSS | high polyreactivity |
| QVQLVESGGGLVQAGGSLRLSCAASGSTFGRNAMGWYRQAPGKERELVASISWGGGSTYYADSVKVRFTISRDNAKNNVYLQMNSLKPEDTAVYYCAAGLAYWYWRGYDYWGQGTQVTVSS | high polyreactivity |
| QVQLVESGGGLVQAGGSLRLSCAASGSTFGRYAMGWYRQAPGKERELVAAISASGGSTYYADSVKGRFTISRDNAKNTVYLLMNSLKPEDTAVYYSAALIDVITGQYDYWGQGTQVTVSS | high polyreactivity |
| QVQLVESGGGLVQAGGSLRLSCAASGSTFGRYAMGWYRQAPGKERELVAAISPRGGSTYYADSVKGRFTISRDNAKNTVYLQMNSLKPEDTAVYYCATGYPIDLGREFDYWGQGIQVTVSS | high polyreactivity |
| QVQLVESGGGLVQAGGSLRLSCAASGSTFGRYAMGWYRQAPGKERELVAAISWSGGSTHYADSVKGRFTISRDNAKNTVYLQMNSLKPEDTAVYYCAAYTFYSYDYWGQGSQVTVSS | high polyreactivity |
| QVQLVESGGGLVQAGGSLRLSCAASGSTFGRYAMGWYRQAPGKERELVAAITSDTGNTNYADSVKGRFTISRDNAKNTVYLQMNSLKPEDTAVYYCAAATFWVLWGHVIGNYDSWGQGTQVTVSS | low polyreactivity |
| QVQLVESGGGLVQAGGSLRLSCAASGSTFGRYAMGWYRQAPGKERELVAGISRGGTTYYADSVKGRFTISRDNAKNTVYLQLNSLKPEDTAVYYCAKLRWPVFDYWGQGTQVTVSS | high polyreactivity |
| QVQLVESGGGLVQAGGSLRLSCAASGSTFGRYAMGWYRQAPGKERELVARISWGGGSTYYADSVKGRFTISRDNAKNTVYLQMNSLKPEDTAVYYCATRVYRSAVSYDYWGQGTQVTVSS | high polyreactivity |
| QVQLVESGGGLVQAGGSLRLSCAASGSTFGRYVMGWYRQAPGKDRELVAAISKNAGSTYYADSVKGRFTISRDNAKNTVYLQMNSLKPEDTAVYYCAADWRTKGYDSLGQGTQVTVSS | high polyreactivity |
| QVQLVESGGGLVQAGGSLRLSCAASGSTFGSNAMGWYRPAPGKERELVAAITYSGGRTYYADSVKGRFTISRDNAKNTVYLQMNSLKPEDTAVYYCAATFGFFYYQYDYWGQGTQVTVSS | low polyreactivity |
| QVQLVESGGGLVQAGGSLRLSCAASGSTFGSYAMGWYRQAAGKERELVAGNSWSGGRTYYADSVKGRFTISRDNAKNTVYLQMNSLKPEDTAVYYCARDTGYYYARYNYWGQGTQVTVSS | low polyreactivity |
| QVQLVESGGGLVQAGGSLRLSCAASGSTFGSYAMGWYRQAPGKERELVAAITASGGSTYYADSVKGRFTISRDNAKNTGYLQMNSLKPEDTAVYYCATRWFAFPWDEYNYWGQGTQVTVSS | low polyreactivity |
| QVQLVESGGGLVQAGGSLRLSCAASGSTFGSYAMGWYRQAPGKERELVADISSRGASTYYADSVKGRFTISRDNAKNTVYFQMNSLKPEDTAVYYCARDVYIWYGYGYFPEYEYWGQGTQVTVSS | low polyreactivity |
| QVQLVESGGGLVQAGGSLRLSCAASGSTFGSYAMGWYRQAPGKERELVAGISWSGGRTYYADSVKGRFTISRDNAKNTVYLQMNSLKPEDTAVYYRARDTGYYYARYNYWGQGTQVTVSS | low polyreactivity |
| QVQLVESGGGLVQAGGSLRLSCAASGSTFGSYAMGWYRQAPGKERELVAVITGGGDTNYADSVKGRFTISRDNAKNTVYLQMNSLKPEDTAVYYCAAEGSFYRYHVGSDYWGQGTQLTVSS | low polyreactivity |
| QVQLVESGGGLVQAGGSLRLSCAASGSTFGSYGMGGYRQAPGKERELVAGITSSGSTYYADSVKGRFTISRDNAKNTVYLQMNSLKPDDTAVYYCNARSGIDWYYDNDYWGQGTQVTVSS | low polyreactivity |
| QVQLVESGGGLVQAGGSLRLSCAASGSTFGSYGMGWYRQSPGKERELVAGITSAGSTYYADSVKGRFTISRDNAKNTVYLQMNSLKPEDTAVYYCNARSGIVWYYDNDYWGQGTQVTVSS | low polyreactivity |
| QVQLVESGGGLVQAGGSLRLSCAASGSTFGTYAMGWYRQAPGKERELVAAISNSGGSTYYADSVKGRFTISRDNAKNTVYLQMNSLKPEDTAVYYCNTDGLVRNGPFYSWGQGTQVTVSS | low polyreactivity |

| Sequence | polyreactivity (PSR sort gate) |
| --- | --- |
| QVQLVESGGGLVQAGGSLRLSCAASGSTFGTYGMGWSRQAPGKERESVADITSGGSTYYADSVKGRFTISRDNAKNTVYLQMNSLKPEDTAVYSCAASWFVWSTAVPYDYWGQGTQVTVSS | low polyreactivity |
| QVQLVESGGGLVQAGGSLRLSCAASGSTFGVNDMGWYRQAPWKERELVAAISRGAITNYADSVKGRFTISRDNAKNTVYLQMNSLKPEDTAVYYCAAGFVTYYVPQYKEYGYDYWGQGTQVTVSS | low polyreactivity |
| QVQLVESGGGLVQAGGSLRLSCAASGSTFGVYAMGWYRPAPGKERELVAAIRWSGGGTYYADSVKGRFTISRDNAKNTVYLQMNSLKPEDTAVYYCNTDILSIYAEPYYFTDVDYWGQGTQVTVSS | low polyreactivity |
| QVQLVESGGGLVQAGGSLRLSCAASGSTFGVYAMGWYRQAPGKERELVASITSGTSTYADSVKGRFTISRDNAKNTVYLQMNSLKPEDTAVYYCAAEYLYFNLGYDYWGQGTQVTVSS | low polyreactivity |
| QVQLVESGGGLVQAGGSLRLSCAASGSTFGWYAMGWYRQAPGIERELVATITSDSSTYYADSVKGRFTISRDNAKNTVYLQMNSLKPQDTAVYYCAATNYWIEYAPGYGLYSVEDDYWGQGTQVTVSS | low polyreactivity |
| QVQLVESGGGLVQAGGSLRLSCAASGSTFGWYAMGWYRQAPGKERELVAAINSSGDRTYYADSVKGRFTISRDNAKINVYLQMNSLKPEDTAVYYCAATYWARNWRYDYWGQGTQVTVSS | high polyreactivity |
| QVQLVESGGGLVQAGGSLRLSCAASGSTFGWYAMGWYRQAPGKERELVAAIRRTGSTYYADSVKGRFTISRDNAKNTVYLQMNSLKPEDTAVYYCNAKYPLYLTGYDYWGQGTQVTVSS | low polyreactivity |
| QVQLVESGGGLVQAGGSLRLSCAASGSTFGWYAMGWYRQAPGKERELVAAISTSGGSSYYADSVKGRFTISRDNAKNTVYLQMNSLKPEDTAVYYCNGYYRRYSITFDRYDYWGQGSQVTVSS | high polyreactivity |
| QVQLVESGGGLVQAGGSLRLSCAASGSTFGWYAMGWYRQAPGKERELVATISSGGSTYYADSVKGRFTISRDNAKNTVYLQMNCLKPEDTAVYYCAADYLTPWVYWFSYGLDYWGQGTQVTVSS | low polyreactivity |
| QVQLVESGGGLVQAGGSLRLSCAASGSTFGWYTMGWYRQAPGKERELVATISYGGGITNYADSVKGRFTISRDNAKNTVYLQMNSLKPEDTAVYYCAARGDGVTNPFGYWGQGTQVTVSS | high polyreactivity |
| QVQLVESGGGLVQAGGSLRLSCAASGSTFGWYTMGWYRQAPGKERELVATISYGGGITNYADSVKGRFTMSRDNAKNTVDLQMNSLKPEDTAVYYWAVDNTGRSWPYDYWGQGTQVTVSS | low polyreactivity |
| QVQLVESGGGLVQAGGSLRLSCAASGSTFGYAMGWNRQAPGKERELVAAINWSGSRTYYADSVKGRFTISRDNAKNTVYLQMNSLKPEDTAVYYCAVLYAGDSPDFDYWGQGSQVTVSS | high polyreactivity |
| QVQLVESGGGLVQAGGSLRLSCAASGSTFGYNAMGWYRQAPGKEREFVARIRSSGSTTYADSVKGRFTISRDNAKNTVYLQMNSLKPEDTAVYYCAATFRGRYAYYYWGQGTQVTVSS | high polyreactivity |
| QVQLVESGGGLVQAGGSLRLSCAASGSTFGYNAMGWYRQAPGKERELVAAIRISGGTTYYADSVKGRFTSSRDNAKNTVYLQMNSPKPSDTAVYYCAAGTAGTTGSPKFSGYGYDYWGQGTQVTVSS | low polyreactivity |
| QVQLVESGGGLVQAGGSLRLSCAASGSTFGYNAMGWYRQAPGKERELVAAITRRGGITYYADSVKGRFTISRDNAKNTVYLQMNSLKPEDTAVYYCAKRLGYPGNSRNYYYWGQGTQVTVSS | high polyreactivity |
| QVQLVESGGGLVQAGGSLRLSCAASGSTFGYNAMGWYRQAPGKERELVAASSRSGGRTYYADSVKGRFTISRDNAKNTVYLQMNSLKPEDTAVYYCATYYTNKVPARYYWGQGTQVTVSS | high polyreactivity |
| QVQLVESGGGLVQAGGSLRLSCAASGSTFGYNAMGWYRQAPGKERELVAGISSGGSTNYADSVKGRFTISRDNAKNTVYLQMNSLKPEDTAVYYCNVDERQFSTVYPYRQFDYWGQVTQVTVSS | low polyreactivity |
| QVQLVESGGGLVQAGGSLRLSCAASGSTFGYNAMGWYRQAPGKERELVAGITGSGTRTYYADSVKGRFTISRDNAKNTVYLQMNSLKPEDTAVYYCAATPTRRYYRQSAYDYWGQGTQVTVSS | high polyreactivity |
| QVQLVESGGGLVQAGGSLRLSCAASGSTFGYNAMGWYRQAPGTERELVAAISSRGGSTYYADSVKGRFTISRDNAKNTVYLQMNSLKPDDTAVYYCAADPPNGAEYYWGQGTQVTGSS | high polyreactivity |
| QVQLVESGGGLVQAGGSLRLSCAASGSTFGYYAMGWYRPAPGKERELVAAINVSGGRTYYADSVKGRFTISRDNAKNTVYLQMNSLKPEDTAVYYCAAQRPEYRAGRYNYWGQGTQVTVSS | high polyreactivity |

Reference: the nanobody polyreactivity screen of Harvey et al. (2022)
